Here are results for twelve molecules from patent publication US20230235029A1 (INTEGRATED BIOTHERAPEUTICS, published 2023).

Assay in all cases: cell-based or functional assay
The target of assay [1] is T1, Marburg virus Angola GP on rVSV pseudotype (Marburg virus, Angola strain, UniProt Q1PD50 19-681).
T1 sequence: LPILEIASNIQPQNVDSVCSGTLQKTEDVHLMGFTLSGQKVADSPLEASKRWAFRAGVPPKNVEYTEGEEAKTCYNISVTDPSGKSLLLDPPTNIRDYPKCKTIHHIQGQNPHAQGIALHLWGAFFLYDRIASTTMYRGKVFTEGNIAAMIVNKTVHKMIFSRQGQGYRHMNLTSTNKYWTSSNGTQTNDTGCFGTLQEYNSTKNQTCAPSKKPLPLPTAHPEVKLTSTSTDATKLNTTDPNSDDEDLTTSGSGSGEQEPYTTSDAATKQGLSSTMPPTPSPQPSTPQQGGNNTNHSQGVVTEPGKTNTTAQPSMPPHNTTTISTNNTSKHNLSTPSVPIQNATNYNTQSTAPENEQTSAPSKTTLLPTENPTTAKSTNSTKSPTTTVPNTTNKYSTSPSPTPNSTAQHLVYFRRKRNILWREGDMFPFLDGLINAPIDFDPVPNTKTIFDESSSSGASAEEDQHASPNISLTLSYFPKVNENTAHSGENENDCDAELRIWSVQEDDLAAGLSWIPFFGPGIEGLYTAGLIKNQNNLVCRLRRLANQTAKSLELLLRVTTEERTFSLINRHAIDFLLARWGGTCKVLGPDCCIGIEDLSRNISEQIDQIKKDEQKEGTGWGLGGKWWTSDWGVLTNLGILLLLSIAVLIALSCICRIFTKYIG

Assay [2] addresses T2, RAVV GP on rVSV pseudotype (VSV-MARV RAVV GP) (Ravn virus, UniProt Q1PDC7 19-681).
T2 sequence: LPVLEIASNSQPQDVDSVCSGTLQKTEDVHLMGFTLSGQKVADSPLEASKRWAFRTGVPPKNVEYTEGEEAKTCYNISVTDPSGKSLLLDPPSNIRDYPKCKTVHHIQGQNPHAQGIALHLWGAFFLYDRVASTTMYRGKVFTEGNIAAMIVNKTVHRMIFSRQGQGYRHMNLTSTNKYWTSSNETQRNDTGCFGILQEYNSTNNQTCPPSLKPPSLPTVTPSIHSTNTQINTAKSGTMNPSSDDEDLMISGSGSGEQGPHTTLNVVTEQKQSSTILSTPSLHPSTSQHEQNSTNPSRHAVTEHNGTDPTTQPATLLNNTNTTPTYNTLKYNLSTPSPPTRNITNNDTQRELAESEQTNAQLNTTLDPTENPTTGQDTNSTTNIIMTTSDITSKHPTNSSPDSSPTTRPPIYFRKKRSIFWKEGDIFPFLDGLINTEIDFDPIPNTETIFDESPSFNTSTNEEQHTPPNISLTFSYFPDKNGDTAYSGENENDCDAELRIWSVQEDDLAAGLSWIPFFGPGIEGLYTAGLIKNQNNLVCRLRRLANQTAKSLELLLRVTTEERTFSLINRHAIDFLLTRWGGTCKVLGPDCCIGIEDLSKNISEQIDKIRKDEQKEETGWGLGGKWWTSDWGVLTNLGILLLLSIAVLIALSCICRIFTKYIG

Assay [3] deals with T3, Marburg virus Musoke GP on rVSV pseudotype (VSV-MARV Musoke GP) (Marburg virus, Musoke strain, UniProt P35253 19-681).
T3 sequence: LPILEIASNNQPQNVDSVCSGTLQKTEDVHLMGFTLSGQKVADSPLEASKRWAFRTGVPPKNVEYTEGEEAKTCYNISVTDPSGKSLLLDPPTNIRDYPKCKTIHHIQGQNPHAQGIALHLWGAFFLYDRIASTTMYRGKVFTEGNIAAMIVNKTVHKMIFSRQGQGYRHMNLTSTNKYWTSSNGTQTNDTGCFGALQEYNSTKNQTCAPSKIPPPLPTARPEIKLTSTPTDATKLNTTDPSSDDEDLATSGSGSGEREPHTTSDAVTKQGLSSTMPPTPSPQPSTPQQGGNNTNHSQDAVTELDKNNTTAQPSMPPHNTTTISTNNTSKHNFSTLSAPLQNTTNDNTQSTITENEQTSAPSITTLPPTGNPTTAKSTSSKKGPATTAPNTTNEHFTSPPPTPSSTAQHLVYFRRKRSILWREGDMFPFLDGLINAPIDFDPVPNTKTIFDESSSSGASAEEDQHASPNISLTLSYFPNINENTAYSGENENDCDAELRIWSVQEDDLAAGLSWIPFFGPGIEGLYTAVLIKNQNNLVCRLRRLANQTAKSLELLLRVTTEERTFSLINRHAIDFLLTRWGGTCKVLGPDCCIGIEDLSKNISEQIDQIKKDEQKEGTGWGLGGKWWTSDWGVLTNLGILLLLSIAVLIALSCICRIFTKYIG

B1: R13 (antibody, V domains shown)
VH: EVQLVESGAGLVQPGGSLRLSCAASGFTFSNSWMTWVRQAPGKGLEWLARIKRKADGETADYAASVKGRFTISRDDSKNTLYLQMNSLKTEDTAVYYCTTYNWNFNFDFWGQGVLVTVSS
VL: DIQMTQSPSSLSASVGDRVTITCRASQDISPYLNWYQQKPGKAPKLLIYYGNRLESGVPSRFSGSGSGTDLTLTISSLQPEDFATYYCQQYYRLPLTFGGGTKVETK
Regarding B1, the NT50 in assay [1] turned out to be 0.03 µg/mL; in assay [2] it was 0.07 µg/mL; in assay [3] it was 0.03 µg/mL.

B2: R15 (antibody, V domains shown)
VH: EVQLVESGAGLVRPGGSLRLSCAASGFTFSNTWMTWVRQAPGRGLEWLARIKRKADGETADYAASVKGRFTISRDDSKHTLFLQMNSLKTEDTAVYYCTTYNWNFNFDNWGQGVLVTVSS
VL: DIQMTQSPSSLSASVGDRVTITCRASQAFSSYLNWYQQKPGKAPKLLIYYANRLESGVPSRFSGSESGTEFTLTISSLQPEDFATYYCQQYYRLPLTFGGGTKVEIK
Turning to B2, the NT50 was determined as 0.04 µg/mL in assay [1], 0.08 µg/mL in assay [2] and 0.03 µg/mL in assay [3].

B3: R39 (antibody, V domains shown)
VH: EVQLVESGAGLVQPGGSLRLSCAGSGFTFSNTWMTWVRQAPGKGLEWVARIKRKADGETADYAASVKGRFTISRDDSKNTLYLQMNSLKTEDTAVYYCTTYNWNFNFDYWGQGVLVTVSS
VL: DIQMTQSPSSLSASVGDRVTITCRASQDISPYLNWYQQKPGKAPKLLIYYGNRLESGVPSRFSGSGSGTDLTLTISSLQPEDFATYYCQQYYRLPLTFGGGTKVEIK
As for B3, the NT50 is 0.03 µg/mL in assay [1], 0.07 µg/mL in assay [2] and 0.04 µg/mL in assay [3].

B4: R29 (antibody, V domains shown)
VH: EVQLVESGAGLVQPGGSLRLSCIASGFTFSNSWMTWVRQAPGRGLEWIARIKRKADGETADYAASVKGRFTISRDDSKNTLYLQMNSLKTEDTAVYYCTTYNWNFNFDYWGQGVLVTVSS
VL: DIQMTQSPSSLSASVGDRVTITCRASQDISPYLNWYQQKPGKAPKLLIYYGNRLESGVPSRFSGSGSGTDLTLTISSLQPEDFATYYCQQYYRLPLTFGGGTKVEIK
On to B4, for which the NT50 in assay [1] was found to be 0.02 µg/mL; in assay [2], 0.03 µg/mL; in assay [3], 0.02 µg/mL.

B5: R24 (antibody, V domains shown)
VH: EVQLVESGAGLVQPGGSLRLSCAGSGFTFSNTWMTWVRQAPGKGLEWVARIKRKADGETADYAASVKGRFTISRDDSKSTLYLQMNSLKTEDTAVYYCTTYNWNFNFDYWGQGVLVTVSS
VL: DIQMTQSPSSLSASVGDRVTITCRASQDISPYLNWYQQKPGKAPKLLIYYGNRLESGVPSRFSGSGSGTDLTLTISSLQPEDFATYYCQQYYRLPLTFGGGTKVESK
Consider B5, for which the figures for the NT50 in assay [1], in assay [2] and in assay [3] were 0.04 µg/mL, 0.06 µg/mL and 0.03 µg/mL, respectively.

B6: R25 (antibody, V domains shown)
VH: EVQLVESGAGLVQPGGSLRLSCAASGFTFSNSWMTWVRQAPGKGLEWVGRIKRKADGETADYAASVKGRFTISRDDSKNTLYLQMNSLKTEDTAVYYCTTYNWNFNFDHWGQGVLVTVSS
VL: DIQMTQSPSSLSASVGDRVTITCRASQDISPYLNWYQQKPGKAPKLLIYYGNRLESGVPSRFSGSGSGTDLTLTISSLQPEDFATYYCQQYYRLPLTFGGGTKVEIK
B6: the NT50 in assay [1] was found to be 0.03 µg/mL; in assay [2] it was 0.04 µg/mL; in assay [3], 0.01 µg/mL.

B7: R45 (antibody, V domains shown)
VH: EVQLVESGGGLAKPGGSLRLSCAASGFTFGDHWMSWVRQAPGNGLQWISAIDRAGGSTFYADSVKGRFTISRENAKNTLYLQIDSLRPEDTAVYFCARDQGRTVGYLDYWGQGVLVTVSS
VL: QSALTQPRSVSGSPGQSVTISCTGTSSDIGSYTYVSWYRQHPGTAPKLIIYDVDERPSGVSYRFSGSKSGNTASLTISGLQAEDEADYYCSSYAGRNTWVFGGGTRLTVL
For the molecule B7, the NT50 in assay [1] came out at 0.1 µg/mL; in assay [2], 0.27 µg/mL; in assay [3], 0.1 µg/mL.

B8: R50 (antibody, V domains shown)
VH: QVQLQESGPGLVKPSETLSLTCAVSGDSISSYWWNWIRQPPGKGLEWIGEIYGYSGSTNYNASLKSRVTISKDASKKQLSLKLSSVTAADTAVYYCARDPLNQDAFDFWGLGLRVTVSS
VL: QSALTQPPSVSGSPGQSVTISCTGTSSDIGGYTYVSWYQQHPGKAPKLMIYDVSRRPSGVSDRFSGSKSGNTASLTISGLQAEDEADYYCSSYAGRNALLFGGGTRLTVL
With B8, the NT50 amounted to 0.05 µg/mL in assay [1], 0.21 µg/mL in assay [2] and 0.06 µg/mL in assay [3].

B9: R55 (antibody, V domains shown)
VH: QVQLQESGPGLVKPSETLSLTCAVSGDSISSYWWNWIRQPPGKGLEWIGEIYGYSGSTNYNPSLKSRVTISKDASKKQLSLKLSSVTAADTAVYYCARDPLNQDAFDFWGLGLRVTVSS
VL: QSALTQPPSVSGSPGQSVTISCTGTSSDIGGYTYVSWYQQHPGKAPKLMIYDVSRRPSGVSDRFSGSKSGNTASLTISGLQAEDEADYYCSSYAGRNALLFGGGTRLTVL
With B9, the NT50 in assay [1] was determined as 0.07 µg/mL; in assay [2] it was 0.24 µg/mL; in assay [3], 0.07 µg/mL.

B10: R63 (antibody, V domains shown)
VH: QVQLQESGPGLVKASETLSLTCAVSGASISSYWWNWIRLSPGKGLEWIGEIYGYSGSTSYNSSLKSRVSISRDASKNQFSLKLSSVTAADTAVYYCARDPLNHDAFDFWGRGFRVTVSS
VL: QSALTQPPSVSGSPGQSVTISCAGTSSDIGGYTYVSWYQQHPGKAPKLMIYDVNERPSGVSDRFSGSKSGNTASLTISGLQAEDEADYYCSSYAGSKTVSFGGGTRLSVL
For the molecule B10, the NT50 worked out at 0.04 µg/mL in assay [1], 0.17 µg/mL in assay [2] and 0.05 µg/mL in assay [3].

B11: R53 (antibody, V domains shown)
VH: QVQLQESGPGLVKPSETLSLTCAVSGASISSYWWNWIRQPPGKGLEWIGEIYGYSGSTYYSPSLKSRVTISKDASKNQFSLKLSSATAADTAVYYCVRDPLNQDAFDFWGQGLRVTVSS
VL: QSALTQPPSVSGSPGQSVTISCTGTSSDIGSYDYVSWYQQHPGKAPKLMMYDVSKRPSGVFDRFSGSKSGNTASLTISGLQADDEAAYFCSSYAGRRILLFGGGTRLTVL
With B11, the values for the NT50 in assay [1], in assay [2] and in assay [3] were 0.02 µg/mL, 0.07 µg/mL and 0.02 µg/mL, respectively.

B12: R64 (antibody, V domains shown)
VH: QVQLQESGPGLVKPSETLSLTCAVSGASMSDYWWNWIRQPPGKGLEWIGEIYGYSGSSYYNPSLKSRVSISKDASKKQLSLKLSSVTAADTAVYYCARDPLNQDAFDFWGLGLRVTVSS
VL: QSALTQPPSVSGSPGLSVTISCTGSGSDIGGYDYVSWYQQHPGKAPKLMIYGVNKRPSGVSDRFSGSKSGNTASLSISGLQAEDEADYYCSSYAGSHTLLFGGGSRLTVL
Turning to B12, the NT50 amounted to 0.02 µg/mL in assay [1], 0.09 µg/mL in assay [2] and 0.03 µg/mL in assay [3].
